{
  "source": "patent US8257949B2",
  "about": "“Self-priming polysialyltransferase” (National Research Council of Canada, priority 2006, dated 2012)",
  "molecules": {"B1": {"name": "PST-17: truncated CstII from OH4384 fused to the Neisseria Pst, SEQ ID NO:2 (protein)", "chain": "MKKVIIAGNGPSLKEIDYSRLPNDFDVFRCNQFYFEDKYYLGKKCKAVFYNPSLFFEQYYTLKHLIQNQEYETELIMCSNYNQAHLENENFVKTFYDYFPDAHLGYDFFKQLKDFNAYFKFHEIYFNQRITSGVYMCAVAIALGYKEIYLSGIDFYQNGSSYAFDTKQKNLLKLAPNFKNDNSHYIGHSKNTDIKALEFLEKTYKIKLYCLCPNSLLANFIELAPNLNSNFIIQEKNNYTKDILIPSSEAYGKFSKNINFGGGHMLKKIKKALFQPKKFFQDSMWLTTSPFYLTPPRNNLFVISNLGQLNQVQSLIKIQKLTNNLLVILYTSKNLKMPKLVHQSANKNLFESIYLFELPRSPNNITPKKLLYIYRSYKKILNIIQPAHLYMLSFTGHYSYLISIAKKKNITTHLIDEGTGTYAPLLESFSYHPTKLERNLIGNNLNIKGYIDHFDILHVPFPEYAKKIFNAKKYNRFFAHAGGISINNNIANLQKKYQISKNDYIFVSQRYPISDDLYYKSIVEILNSISLQIKGKIFIKLHPKEMGNNYVMSLFLNMVEINPRLVVINEPPFLIEPLIYLTNPKGIIGLASSSLIYTPLLSPSTQCLSIGELIINLIQKYSMVENTEMIQEHLEIIKKFNFINILNDLNGVISNPLFKTEETFETLLKSAEFAYKSKNYFQAIFYWQLASKNNITLLGHKALWYYNALYNVKQIYKMEYSDIFYIDNISVDFHSKDKLTWEKIKHYYYFADNRIGRDR"}},
  "type_in_all_cases": "biochemical",
  "key": {"[1]": {"target": "T1, N. meningitidis polysialyltransferase PST-13 (MalE-PST fusion) (Neisseria meningitidis, UniProt Q51281)", "experiment": "Acceptor inhibition in kinetic assays", "settings": "GD3-FCHASE at concentrations over 2 mM", "protocol": "(§1) Measurement of sialyltransferase activity—Basic assays were performed at 37° C. in 10-40 μL volumes containing 50 mM NaHEPES pH 7.5, 10 mM MgCl2, 0.1-50 mM CMP-NeuAc, 0.01-5 mM labelled acceptor and various amounts of enzyme. Buffer optimization assays were done with the following buffers: 20 mM citrate-phosphate pH 6.0-8.0, 50 mM Na2PO4 pH 6.5-7.5, 50 mM NaHEPES pH 6.5-8.0, 50 mM TrisHCl pH 7.5-9.0. Metal optimization assays were performed with 10 mM CaCl2, CoCl2, MgCl2, MnCl2, NiCl2, or ZnSO4. For the magnesium titration, endogenous Mg^2+ was removed by addition of EDTA and then dialyzed against 20 mM TrisHCl pH 7.5. Reactions were stopped man equal volume of 50% acetonitrile, 1% sodium dodecylsulphate, 10 mM EDTA. Analysis of actions was done by capillary electrophoresis as previously described. See, e.g., Wakarchuk, W. W. and Cunningham, A. M., Methods Mol. Biol., 213:263-274 (2003)).\nSome degradation of the starting material was observed and was more significant at high acceptor concentrations (5 mM)."}, "[2]": {"target": "T1, N. meningitidis polysialyltransferase PST-13 (MalE-PST fusion)", "experiment": "Sialyltransferase activity by capillary electrophoresis, apparent Km estimation", "settings": "CE based assay, 37° C., 50 mM NaHEPES pH 7.5, 10 mM MgCl2, estimated, read-out: apparent Km for GD3-FCHASE", "protocol": "(§2) For production of PST proteins, Cells grown in the presence of IPTG were lysed with an Avestin C5 Emulsiflex cell disrupter (Avestin Ottawa, Ontario) and centrifuged at 1000×g to pellet unbroken cells. MalE-PST fusions were purified using amylose resin as described by the manufacturer (New England Biolabs, Mississauga ON).\nas §1\n(§3) Acceptor synthesis—The GM3/GD3/GT3-FCHASE acceptors were synthesized from Lac-FCHASE on a milligram scale. […]"}, "[3]": {"target": "E. coli polysialyltransferase PST-05 (MalE-PST fusion) (Escherichia coli, UniProt Q57269)", "experiment": "Sialyltransferase activity by capillary electrophoresis, apparent Km estimation", "settings": "CE based assay, 37° C., 50 mM NaHEPES pH 7.5, 10 mM MgCl2, estimated, read-out: apparent Km for GD3-FCHASE", "protocol": "as §2, §1, §3"}, "[4]": {"experiment": "Poly-sialylation of glycopeptide acceptor by PST17, TLC and CE analysis", "protocol": "The control reaction lacked CMP-sialic acid. […] Disialylated products and products with more than 45 sialic acid residues are indicated with arrows.\nThe poly-sialyltransferase of PST17 was tested using a partially glycosylated IFNα2b[GalNAc-Gal-NeuAc]-FCHASE glycopeptide. Assay conditions were as follows: 50 mM NaHEPES pH 7.5, 5 mM MnCl2, 5 mM MgCl2, 5 mM CMP-NeuAc, 0.0684 mM IFNα2b[GalNAc-Gal-NeuAc]-FCHASE glycopeptide. Reactions were incubated at 37° C. for 1 hour and 2 hours. […] After 1 hour incubation at 37° C. there is 49.9% conversion to sialylated product and after 2 hours there is 62.5% conversion to sialylated product. […] A glycopeptide acceptor was also a very good acceptor for the PST-17 fusion protein, and long PSA polymers could be seen in CE analysis of those reactions. (Data not shown.) The glyco-peptide acceptors, NH2-VGVT[GalNAc-α-]ETP-COOH (SEQ ID NO:32), were obtained from Sussex Research Laboratories (Ottawa, Canada) and then N-terminally labelled with FCHASE as described for the amino-phenyl glycosides."}, "[5]": {"experiment": "Activity of self-priming poly-sialyltransferase proteins in E. coli supernatant or pellet, CE assay", "parameters": "Specific Activity: unit not given here", "settings": "for Activity / Specific Activity: 24 hour sample; for Percent GM3: FCHASE-GM3 found in the product", "protocol": "The self-priming poly-sialyltransferase proteins were expressed in E. coli cells and growth conditions for optimal protein expression were determined. Similar results were obtained for all three fusions; therefore, results are shown only for the PST-17 fusion. Cells were grown at 20° C., 25° C. and 30° C. for four different time periods. Aliquots of 1.5 mL were harvested, sonicated, and then centrifuged at 10,000×g for 10 mm. Expression of the self-priming poly-sialytransferase proteins increased with time at all […] temperatures.\nEnzymatic activities of the self-priming poly-sialytransferase proteins were confirmed. Only the 24 hour samples of FIG. 4 were assayed Assays were done using the following reaction mixture: 0.5 mM FCHASE-Lac, 50 mM NaHEPES pH 7.5, 10 mM MgCl2, 5 mM CMP-NeuAc and 50% volume bacterial supernatant or pellet Reactions were incubated at 37° C. for 10 min and analyzed by capillary electrophoresis. […] For example, in the PST-17 20° C. supernatant, 9% of the substrate is converted into product, but most product is FCHASE-GM3. In contrast, in the PST-21 20° C. supernatant, 7% of the substrate is converted into product with 68% FCHASE-GM3, the remaining products containing longer sialic acid polymers. […] The highest levels of activity are shown in bold font."}, "[6]": {"experiment": "Comparison of PST-16 and PST-17 sialic acid polymerization, CE analysis", "text": "The dotted line represents PST-16; the solid line represents PST-17. Arrows indicate the positions of Lactose (lac), GD3, GQ4, and polysialylated products conjugated to more than four sialic acid residues. The amount of polysialic acid relative to all other sialylated species ([…] sialic acid moieties) is about 50% in for each reaction.\nSialylation of the starting material: (▪), +1 NeuAc; ( ? ), +2 NeuAc; (□), +3 NeuAc; ( ? ), 4 NeuAc; ( ? ), >4 NeuAc (▪). 6A is PST-16 with Lac-FCHASE substrate. 6B is PST-17 with Lac-FCHASE substrate. 6C is PST-16 with T-Ag-FCHASE substrate. 6D is PST-17 with T-Ag-FCHASE substrate.\nA fusion of Cst-II from C. jejuni OH4384 and the E. coli PST protein (PST-16) was generated and compared to the and N. meningitidis fusion (PST-17). Enzymatic activities of the two fusion proteins were determined and compared. […] See, e.g., FIGS. 5 and 6."}, "[7]": {"experiment": "Polysialic acid synthesis, fusion protein versus mixture of unfused parent enzymes", "settings": "T-Ag-containing glycopeptides", "text": "FIG. 9 provides a comparison of polysialic acid synthesis activity using a mixture of unfused Cst-II and PST-13 enzymes or the PST-17 fusion enzyme. The sialic acid acceptor was the glycopeptide interferon α2b-[TAg]-FCHASE. FIG. 9A is the unfused enzyme mixture: CST-81 and PST-13. FIG. 9B is the PST-17 fusion enzyme. Figure legend: IFNα2b-[TAg]-FCHASE (Starting material) (▪); +1 NeuAc ( ? ); +2 NeuAc (□); +3 NeuAc ( ? ); +4 NeuAc ( ? ); >4 NeuAc (▪).\nIn order to evaluate whether the fusion protein functions more efficiency than the unfused parent enzymes mixed together, we performed experiments where we controlled the stoichiometry of the individual sialyltransferases. The stoichiometry of the mixtures was calculated using gel densitometry. Care was taken not to overload the gels so that the protein bands were not saturated. Gels were stained with SYPRO Orange and protein was quantitated with software provided with Imager system. Reactions contained 4 μM enzyme based on the percentage present in the separate preparations.\nSee, e.g., FIG. 9. Although less striking, similar results were obtained using a mono-sialylated T-Ag-glycopeptide (S-T-Ag-glycopeptide) acceptor also. See, e.g., FIG. 10."}, "[8]": {"experiment": "PST-17 time course on disaccharide acceptor", "settings": "single addition of enzyme, fixed donor concentration", "protocol": "A comparison of acceptors substrates was performed using Lactose, N-acetyllactosamine, and Gal-β-1,3-GalNAc-α (T-Ag) disaccharide acceptors. […] See, e.g., FIG. 7."}},
  "data": [
    {"molecule": "NeuAc-α2,8-NeuAc-α2,3-Gal-β1,4-Glc-β-FCHASE [GD3-FCHASE]", "values": [
      {"measurement": "acceptor inhibition (productivity of the enzyme)", "setting": "[1]", "value": "decreased significantly"},
      {"measurement": "Km", "setting": "[2]", "value": 120, "unit": "µM"},
      {"measurement": "Km", "setting": "[3]", "value": 145, "unit": "µM"}
    ]},
    {"molecule": "B1", "values": [
      {"measurement": "conversion to sialylated product", "setting": "[4]; 1 hour incubation at 37° C.", "value": 49.9, "unit": "%"},
      {"measurement": "conversion to sialylated product", "setting": "[4]; 2 hours at 37° C.", "value": 62.5, "unit": "%"},
      {"measurement": "sialic acid residues on products", "setting": "[4]; CE analysis, FIG. 8", "value": "more than 45"},
      {"measurement": "substrate converted into product", "setting": "[5]; 20° C. supernatant, 37° C. for 10 min", "value": 9, "unit": "%"},
      {"measurement": "Activity", "setting": "[5]; 20° C., P (pellet)", "value": 3.270, "unit": "mU/mL"},
      {"measurement": "Specific Activity", "setting": "[5]; 20° C., P (pellet)", "value": 8.959},
      {"measurement": "Percent GM3", "setting": "[5]; 20° C., P (pellet)", "value": 98, "unit": "%"},
      {"measurement": "Activity", "setting": "[5]; 20° C., S (supernatant)", "value": 5.570, "unit": "mU/mL"},
      {"measurement": "Specific Activity", "setting": "[5]; 20° C., S (supernatant)", "value": 2.637},
      {"measurement": "Percent GM3", "setting": "[5]; 20° C., S (supernatant)", "value": 88, "unit": "%"},
      {"measurement": "Activity", "setting": "[5]; 25° C., P (pellet)", "value": 9.329, "unit": "mU/mL"},
      {"measurement": "Specific Activity", "setting": "[5]; 25° C., P (pellet)", "value": 11.945},
      {"measurement": "Percent GM3", "setting": "[5]; 25° C., P (pellet)", "value": 59, "unit": "%"},
      {"measurement": "Activity", "setting": "[5]; 25° C., S (supernatant)", "value": 8.192, "unit": "mU/mL"},
      {"measurement": "Specific Activity", "setting": "[5]; 25° C., S (supernatant)", "value": 3.378},
      {"measurement": "Percent GM3", "setting": "[5]; 25° C., S (supernatant)", "value": 67, "unit": "%"},
      {"measurement": "Activity", "setting": "[5]; 30° C., P (pellet)", "value": 13.355, "unit": "mU/mL"},
      {"measurement": "Specific Activity", "setting": "[5]; 30° C., P (pellet)", "value": 15.228},
      {"measurement": "Percent GM3", "setting": "[5]; 30° C., P (pellet)", "value": 51, "unit": "%"},
      {"measurement": "Activity", "setting": "[5]; 30° C., S (supernatant)", "value": 3.976, "unit": "mU/mL"},
      {"measurement": "Specific Activity", "setting": "[5]; 30° C., S (supernatant)", "value": 1.893},
      {"measurement": "Percent GM3", "setting": "[5]; 30° C., S (supernatant)", "value": 58, "unit": "%"},
      {"measurement": "formation of long sialic acid polymers", "setting": "[6]; CE analysis", "value": "formation of long polymers happens from the earliest time points"},
      {"measurement": "amount of polysialic acid relative to all other sialylated species", "setting": "[6]; Lac-FCHASE acceptor, FIG. 5", "value": "about 50%"},
      {"measurement": "polysialic acid product relative to the combination of unfused parent enzymes", "setting": "[7]", "value": "four times as much"},
      {"measurement": "polysialic acid product (PSA)", "setting": "[7]; 4 μM enzyme", "value": 17, "unit": "%"},
      {"measurement": "Lac-FCHASE consumed", "setting": "[8]", "value": "essentially all"},
      {"measurement": "T-Ag material consumed", "setting": "[8]", "value": 72, "unit": "%"}
    ]}
  ]
}
